US20260337282 (published 2026)
Each block holds one binder with its values, some of them ahead of it.

Assays:
Assay in all cases: FACS
[1] = biological target: human CCR8 (human)
[2] = biological target: T1, mouse CCR8 (mouse)
T1 chain: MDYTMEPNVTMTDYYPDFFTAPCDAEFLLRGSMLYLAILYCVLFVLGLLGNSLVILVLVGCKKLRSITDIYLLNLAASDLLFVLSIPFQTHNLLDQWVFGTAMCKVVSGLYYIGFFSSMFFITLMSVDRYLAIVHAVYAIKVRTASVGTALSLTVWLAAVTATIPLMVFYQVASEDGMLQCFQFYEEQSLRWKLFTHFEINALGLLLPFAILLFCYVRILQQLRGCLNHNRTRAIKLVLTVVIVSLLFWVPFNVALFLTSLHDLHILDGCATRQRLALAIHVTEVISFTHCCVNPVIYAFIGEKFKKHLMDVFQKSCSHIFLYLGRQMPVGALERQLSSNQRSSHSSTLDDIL

[3] = biological target: T1, mouse CCR8
[4] = biological target: T2, cynomolgus CCR8 (cynomolgus)
T2 chain: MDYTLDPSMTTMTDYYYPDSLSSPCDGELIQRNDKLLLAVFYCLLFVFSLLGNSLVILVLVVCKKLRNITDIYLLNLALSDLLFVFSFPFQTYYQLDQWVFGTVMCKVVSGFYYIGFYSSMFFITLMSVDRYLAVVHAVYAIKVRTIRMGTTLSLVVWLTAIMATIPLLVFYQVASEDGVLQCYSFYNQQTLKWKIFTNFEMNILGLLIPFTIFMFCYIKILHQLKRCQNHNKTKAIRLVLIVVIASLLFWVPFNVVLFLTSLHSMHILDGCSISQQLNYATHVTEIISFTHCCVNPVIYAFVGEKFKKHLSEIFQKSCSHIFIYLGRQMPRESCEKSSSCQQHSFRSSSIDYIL

Chain of human CCR8 (human) (chain, as listed by the source): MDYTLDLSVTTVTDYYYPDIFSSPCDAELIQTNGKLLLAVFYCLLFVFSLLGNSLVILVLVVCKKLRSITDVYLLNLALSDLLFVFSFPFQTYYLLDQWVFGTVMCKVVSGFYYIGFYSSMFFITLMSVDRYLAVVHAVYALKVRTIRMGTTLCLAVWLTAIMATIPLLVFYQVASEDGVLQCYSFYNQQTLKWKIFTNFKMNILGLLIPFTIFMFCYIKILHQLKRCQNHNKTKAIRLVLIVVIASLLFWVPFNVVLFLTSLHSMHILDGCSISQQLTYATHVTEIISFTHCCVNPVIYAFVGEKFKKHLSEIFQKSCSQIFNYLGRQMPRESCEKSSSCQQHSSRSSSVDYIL

EC50 [1]: 0.058 µg/mL | EC50 [2]: > 10 µg/mL | binding result [3]: no binding
B1: 10A11 analog (antibody, V domains shown)
VH: EVQLVESGGALVKPGGSLRLSCAASGFTFSTYALYWVRQAPGKGLEWVGRIRSKSNNYATYYADSVKDRFTISRDDSKNTLYLQMNSLKTEDTAVYYCTRARFYYSDYGYAMDYWGQGTLVTVSS
VL: DIVMTQSPDSLAVSLGERATINCRSSKSLLHSNRNTYLYWYQQKPGQPPKLLIYRMSQLASGVPDRFSGSGSGTDFTLTISSLQAEDVAVYYCMQHLEYPLTFGQGTKLEIKR

EC50 [1]: 0.039 µg/mL | EC50 [2]: > 10 µg/mL | binding result [3]: no binding | binding result [4]: no binding
B2: 7B16 analog (antibody, V domains shown)
VH: EVQLVESGGGLVQPGGSLKLSCAASGFTFNTYAMNWVRQASGKGLEWVGRIRSKSNNYATYYADSVKDRFTISRDDSKNTAYLQMNSLKTEDTAVYYCVRGLLRYRFFDVWGQGTTVTVSS
VL: DIVMTQSPLSLPVTPGEPASISCRSSKSLLHSNGNTYLYWFLQKPGQSPQLLIYRMSNLASGVPDRFSGSGSGTDFTLKISRVEAEDVGVYYCMQHLEYPFTFGGGTKVEIK
